For assay [1], the target named is Signal peptide Ig Kappa, Stalk CD8α. Kind of assay: flow cytometry of T cells nucleofected with the CAR construct, Day 1, Protein L-biotin + SA-APC against CD3-FITC; the filing reports it as CAR surface expression (legend: the short CD8α stalk does not permit surface expression). On the technique in general: A flow cytometer gives signals particle by particle.
Assay [2] deals with Signal peptide CD8α, Stalk CD8α. The description is as above.
In assay [3] the target is Signal peptide CD28, Stalk CD8α. The assay is described as above.
Assay [4] concerns the target Signal peptide mIgVH, Stalk CD8α. The assay is described as above.
The target in assay [5] is Extracellular domain (ECD) of ROR1 fused to human Fc region (UniProt Q01973). Put plainly: ROR1-Fc affinity of the construct's binding domain; method not given.
Extracellular domain (ECD) of ROR1 fused to human Fc region, sequence (Q01973 30-406 limits assumed): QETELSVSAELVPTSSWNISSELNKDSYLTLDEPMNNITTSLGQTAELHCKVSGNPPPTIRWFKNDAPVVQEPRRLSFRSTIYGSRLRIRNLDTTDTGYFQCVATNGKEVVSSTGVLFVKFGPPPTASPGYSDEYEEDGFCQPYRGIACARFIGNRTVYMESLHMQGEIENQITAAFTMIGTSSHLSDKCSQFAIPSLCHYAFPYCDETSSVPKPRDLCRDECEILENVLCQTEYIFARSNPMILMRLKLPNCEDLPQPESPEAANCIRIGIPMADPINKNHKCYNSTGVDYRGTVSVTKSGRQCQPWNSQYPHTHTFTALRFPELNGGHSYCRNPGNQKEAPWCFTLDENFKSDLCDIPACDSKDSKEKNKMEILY
The target of assay [6] is T1, ROR1-His (UniProt Q01973 30-403, limits assumed).
T1 construct: The construct is described nowhere; not shown: His tag
T1 sequence (Q01973 30-403 limits assumed): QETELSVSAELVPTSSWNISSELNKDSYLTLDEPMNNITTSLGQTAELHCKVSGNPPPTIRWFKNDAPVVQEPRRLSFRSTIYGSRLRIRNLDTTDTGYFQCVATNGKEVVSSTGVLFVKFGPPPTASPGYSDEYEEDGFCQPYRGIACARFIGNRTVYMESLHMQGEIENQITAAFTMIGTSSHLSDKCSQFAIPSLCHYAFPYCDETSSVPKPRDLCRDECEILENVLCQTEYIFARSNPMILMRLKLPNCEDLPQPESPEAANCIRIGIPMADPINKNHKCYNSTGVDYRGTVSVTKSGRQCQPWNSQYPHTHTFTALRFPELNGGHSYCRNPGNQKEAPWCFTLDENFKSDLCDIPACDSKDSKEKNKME
Put plainly: ROR1-His affinity of the construct's binding domain; method not given; ROR1-His column, not ROR1-Fc (2.31E-08).

Assay [7] deals with Extracellular domain (ECD) of ROR1 fused to human Fc region (UniProt Q01973). Kind of assay: SPR, Biacore 3000; ROR1 ECD-human Fc on CM5 chip, antibody in solution; ROR1 ECD-human Fc on the chip per paragraph 451; same number stands under ROR1-His in Table 9. (In SPR one partner is held on a chip, and binding of the other changes the refractive index at the surface.)
For assay [8], the target named is T1, ROR1-His. Kind of assay: ROR1-His affinity of the construct's binding domain; method not given.

In the case of Protein L-biotin, the fraction in quadrant Q6 (Protein L-biotin-SA-APC+, CD3-FITC+) in assay [1] came to 2.53; in assay [2], 1.88; in assay [3] it was 2.6; in assay [4], 2.13.

B1: Murine ROR1_v2 binding domain (VL and VH of MurineROR1_v2 (VL-VH)) (antibody, V domains shown)
VH: EVKLVESGGGLVKPGGSLKLSCAASGFTFSSYAMSWVRQIPEKRLEWVASISRGGTTYYPDSVKGRFTISRDNVRNILYLQMSSLRSEDTAMYYCGRYDYDGYYAMDYWGQGTSVTVSS
VL: DVQITQSPSSLYASLGERVTITCKASPDINSYLSWFQQKPGKSPKTLIYRANRLVDGVPSRFSGGGSGQDYSLTINSLEYEDMGIYYCLQYDEFPYTFGGGTKLEMK
notes: also called Murine ROR1_v2 VH; murine ROR1 scFv
Consider B1, for which the figures for the Kd (in assay [5]; with ROR1-His [6]) were 23.1 nM and 70.7 nM, respectively.

B2: Hum ROR1_05VH_(G4S)3x_VL_14 (antibody, mouse IgG1, V domains shown)
VH: EVQLVESGGGLVQPGGSLRLSCAASGFTFSSYAMSWVRQAPGKGLEWVSSISRGGTTYYPDSVKGRFTISRDNSKNTLYLQMNSLRAEDTAVYYCGRYDYDGYYAMDYWGQGTLVTVSS
VL: DIQMTQSPSSLSASVGDRVTITCKASPDINSYLNWYQQKPGKAPKLLIYRANRLVDGVPSRFSGSGSGTDYTLTISSLQPEDFATYYCLQYDEFPYTFGAGTKVEIK
notes: The name reads as an scFv with a (G4S)3 linker; The method text says variable regions were fused to mouse constant regions (chimeric mouse IgG1); VH/VL are tied by the numbers in the name
With B2, the Kd (commonly the concentration at which binding is half-saturated) in assay [5] was found to be 0.193 nM; in assay [7] it was 0.355 nM; with ROR1-His [8], 0.355 nM.

The record behind these values is patent publication US20260035432A1 (PRECIGEN, published 2026).
